Columns and labels:
[1] = biological target: recombinant soluble human CD4 (human) (UniProt P01730); experiment: BIAcore; rCD4 coupled to chip, mAb flowed (avidity)
[2] = biological target: recombinant soluble human CD4 (human) (UniProt P01730); experiment: SPR sensor chip; sCD4 amine-coupled, antibody flowed over

Ka [1]: 3.7e+10 M⁻¹ | koff [1]: 4.2e-06 s⁻¹ | kon [1]: 150000 M⁻¹ s⁻¹ | Ka [2]: 3.7e+10 M⁻¹ | koff [2]: 4.2e-05 s⁻¹ | kon [2]: 150000 M⁻¹ s⁻¹
Substance: mouse anti-human CD4 monoclonal antibody Leu3a (Becton Dickinson)

From US20130039850A1
